The supplement of paper PMC10126150
± gives the standard deviation of the averaged measurements.

System: ATP
Test: switch fluorescence ratio, 500 uM ATP over buffer (Cy3 cluster intensity, sum of 5 cycles each) (fold (ratio)); higher = stronger signal-on switching upon ATP binding; sequences stand for … in TCGTCGGCAGCGTCAGATGTGTATAAGAGACAGTTTTTTTTTTTTTTTTTTTTTTTTT…TC
Conditions: aptamer strand: ATP DNA aptamer (quencher-CACCTGGGGGAGTATTGCGGAGGAAGG + anchor), 100 nM annealed; ATP concentration: 500 uM
Method in brief: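 After annealing to 100 nM quencher-labelled ATP aptamer, Cy3-labelled switching-strand clusters on a modified Illumina MiSeq flow-cell were imaged in selection buffer. A second image followed after 15 min with 500 uM ATP at 22 °C, and five such buffer/ATP cycles were done, each separated by NaOH stripping and re-annealing. The fluorescence ratio, averaged per switch-domain sequence, is summed target-cycle over summed buffer-cycle Cy3 intensity per cluster, with clusters outside 100-1000 RFU excluded.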
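Further: ATP exposure 15 min at 22 °C before imaging.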

Sequence | switch fluorescence ratio
AGTGAATTCA | 1.016 ± 0.0062
AGTGACGGTT | 0.977 ± 0.021
AGTGAGAGGG | 0.966 ± 0.051
AGTGAGGCGG | 1.02 ± 0.013
AGTGAGGGAA | 0.9787 ± 0.003
AGTGAGGGGA | 0.975 ± 0.015
AGTGAGTGCA | 1.039 ± 0.0094
AGTGATGTGG | 1 ± 0.024
AGTGATTCGT | 1.01 ± 0.038
AGTGATTGAA | 0.987 ± 0.033
AGTGATTGGG | 0.995 ± 0.031
AGTGCAACTG | 1.01 ± 0.03
AGTGCAGGGA | 0.9894 ± 0.0077
AGTGCCTATG | 0.994 ± 0.019
AGTGCGCATG | 1.01 ± 0.032
AGTGCGGCCG | 0.9846 ± 0.0036
AGTGCGGTGG | 1 ± 0.059
AGTGCTTACG | 0.995 ± 0.025
AGTGCTTTTA | 0.9927 ± 0.0073
AGTGGATATT | 1.02 ± 0.011
AGTGGCACTG | 0.996 ± 0.0088
AGTGGCTTCC | 2.043 ± 0.013
AGTGGGATTA | 1.01 ± 0.021

Sequence | switch fluorescence ratio
AGTGGGCGGG | 1.003 ± 0.0097
AGTGGGCTAT | 0.999 ± 0.027
AGTGGGGAGC | 0.978 ± 0.031
AGTGGTATAG | 1.01 ± 0.034
AGTGGTGCCG | 0.989 ± 0.02
AGTGGTGGTT | 0.977 ± 0.057
AGTGGTGTCT | 1.01 ± 0.033
AGTGGTGTTT | 0.989 ± 0.016
AGTGTAATGC | 1.15 ± 0.022
AGTGTATAAA | 1.042 ± 0.0077
AGTGTATTGA | 1 ± 0.036
AGTGTCGTGG | 1 ± 0.046
AGTGTCTCCT | 1.02 ± 0.058
AGTGTGCAGG | 0.992 ± 0.017
AGTGTGCGTG | 0.9812 ± 0.0076
AGTGTGGGTA | 0.99 ± 0.021
AGTGTGGGTT | 0.979 ± 0.0047
AGTGTGTTAG | 0.987 ± 0.015
AGTGTGTTTT | 0.996 ± 0.015
AGTTAAAGAG | 1.01 ± 0.021
AGTTACTTAG | 1.07 ± 0.038
AGTTAGGAGT | 0.9895 ± 0.0087
AGTTAGTGAA | 0.99 ± 0.022

Sequence | switch fluorescence ratio
AGTTAGTTTG | 0.961 ± 0.022
AGTTATACAC | 1.014 ± 0.0099
AGTTATATTG | 0.997 ± 0.07
AGTTATCGAC | 1.01 ± 0.021
AGTTATCTTA | 1.02 ± 0.011
AGTTATGAGT | 1.01 ± 0.054
AGTTATGGGG | 1 ± 0.032
AGTTATTTCG | 0.993 ± 0.018
AGTTCAAGCT | 1.02 ± 0.007
AGTTCAGGGC | 1.003 ± 0.004
AGTTCCAAAA | 1.07 ± 0.1
AGTTCCATTT | 0.97 ± 0.028
AGTTCGCTAA | 1.012 ± 0.003
AGTTCGGCTA | 0.998 ± 0.036
AGTTCGGGAG | 0.99 ± 0.013
AGTTCGGTGG | 0.962 ± 0.0022
AGTTCGTAAA | 1.02 ± 0.029
AGTTGAGAGA | 1.01 ± 0.018
AGTTGAGTTT | 0.992 ± 0.026
AGTTGCCAGC | 0.994 ± 0.01
AGTTGCTTCG | 0.975 ± 0.026
AGTTGGACGC | 1.07 ± 0.021
AGTTGGGGCG | 1.01 ± 0.039

Sequence | switch fluorescence ratio
AGTTGGGGGC | 1 ± 0.079
AGTTGGGTTG | 1 ± 0.023
AGTTGGTCCT | 1.01 ± 0.017
AGTTGTACTA | 0.9633 ± 0.0046
AGTTGTAGTT | 0.972 ± 0.041
AGTTGTGTCG | 0.955 ± 0.02
AGTTTAAGTG | 1.01 ± 0.013
AGTTTAATTA | 0.971 ± 0.051
AGTTTATAAT | 0.982 ± 0.023
AGTTTATCAT | 0.9996 ± 0.0089
AGTTTATTAC | 1.47 ± 0.68
AGTTTCTACG | 0.994 ± 0.015
AGTTTCTGTG | 0.968 ± 0.059
AGTTTGAAAG | 1.01 ± 0.017
AGTTTGCTCG | 0.971 ± 0.093
AGTTTGGCAC | 1.05 ± 0.057
AGTTTGGCAT | 0.9958 ± 0.0071
AGTTTGGTTC | 0.9876 ± 0.0078
AGTTTGTCTG | 0.9665 ± 0.007
AGTTTTAGCT | 0.984 ± 0.029
AGTTTTGAAA | 0.9909 ± 0.0021
AGTTTTGCCT | 0.981 ± 0.032
AGTTTTGGCA | 1.03 ± 0.015

Sequence | switch fluorescence ratio
AGTTTTGTGC | 1.005 ± 0.0017
AGTTTTGTTT | 1.01 ± 0.02
AGTTTTTAGA | 1.03 ± 0.033
AGTTTTTAGC | 1.01 ± 0.047
AGTTTTTAGG | 0.99 ± 0.024
AGTTTTTGGC | 0.999 ± 0.021
AGTTTTTTAG | 0.98 ± 0.015
ATAAAAGTCT | 1.03 ± 0.032
ATAAACTAGA | 1.01 ± 0.019
ATAAAGACGT | 1.02 ± 0.037
ATAAAGAGGC | 0.978 ± 0.066
ATAAAGTGGA | 0.984 ± 0.044
ATAAAGTTGG | 0.991 ± 0.0075
ATAAATGCGG | 1.02 ± 0.041
ATAAATGTCA | 1.01 ± 0.026
ATAAATTAGT | 0.998 ± 0.018
ATAAATTTGT | 0.967 ± 0.019
ATAACAGGTA | 1.009 ± 0.005
ATAACATTAG | 0.9984 ± 0.0069
ATAACGGGAT | 1.26 ± 0.42
ATAACTGTAT | 1.122 ± 0.0049
ATAACTTGGG | 0.994 ± 0.041
ATAAGAAATA | 0.996 ± 0.027

Sequence | switch fluorescence ratio
ATAAGAGGGT | 0.976 ± 0.049
ATAAGATTGC | 0.991 ± 0.042
ATAAGCCCGT | 0.976 ± 0.014
ATAAGCGTCG | 1.02 ± 0.013
ATAAGCTTGC | 1.128 ± 0.0064
ATAAGGAAGT | 1.02 ± 0.028
ATAAGGCCCG | 1.04 ± 0.078
ATAAGGCGGG | 0.971 ± 0.031
ATAAGGGAGG | 0.979 ± 0.022
ATAAGGGCTA | 0.99 ± 0.031
ATAAGGGGTA | 0.98 ± 0.019
ATAAGGGTTT | 0.9905 ± 0.0095
ATAAGGTACG | 1.05 ± 0.077
ATAAGGTTGG | 0.988 ± 0.029
ATAAGTATGT | 1 ± 0.018
ATAAGTGAAA | 1.07 ± 0.15
ATAAGTGAAT | 1.01 ± 0.013
ATAAGTGTTG | 0.979 ± 0.017
ATAAGTTTTT | 1 ± 0.023
ATAATAGGGC | 1 ± 0.015
ATAATCGGTG | 0.981 ± 0.041
ATAATGGGCG | 0.995 ± 0.058
ATAATGGGGA | 1 ± 0.018

Sequence | switch fluorescence ratio
ATAATGGGGG | 0.977 ± 0.027
ATAATGGTTT | 0.987 ± 0.056
ATAATGTCGA | 1.02 ± 0.026
ATAATTGAAG | 0.99 ± 0.027
ATAATTGGTG | 1.03 ± 0.018
ATAATTTCGG | 1.01 ± 0.026
ATAATTTGAT | 0.983 ± 0.023
ATACACGGCG | 1.045 ± 0.0087
ATACAGCGA | 1.066 ± 0.01
ATACAGGAAC | 1.03 ± 0.038
ATACCATTTC | 1.03 ± 0.049
ATACCCAAGC | 1.09 ± 0.011
ATACCTAGCT | 1.05 ± 0.019
ATACGAGATT | 1.009 ± 0.0079
ATACGCAGGG | 1.06 ± 0.061
ATACGCTGTT | 0.9875 ± 0.0082
ATACGGCCCC | 1.2 ± 0.1
ATACGTGGCA | 0.9601 ± 0.0037
ATACTATATT | 1.05 ± 0.017
